Experimental data taken from paper PMC3553973.

Molecular target: T1, SacUVDE (UV damage endonuclease) (Sulfolobus acidocaldarius, UniProt Q4J9T1 1-289)
T1 sequence: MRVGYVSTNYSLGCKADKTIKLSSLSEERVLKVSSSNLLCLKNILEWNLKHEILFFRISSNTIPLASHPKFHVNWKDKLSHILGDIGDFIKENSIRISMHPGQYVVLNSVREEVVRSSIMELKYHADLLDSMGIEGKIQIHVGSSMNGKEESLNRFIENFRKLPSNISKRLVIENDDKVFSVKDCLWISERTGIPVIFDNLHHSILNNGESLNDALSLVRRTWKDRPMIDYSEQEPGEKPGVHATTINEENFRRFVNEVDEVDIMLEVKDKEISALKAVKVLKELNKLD
Assay: X-ray crystallography

B1: 15-mer duplex with 6-4 photoproduct (dsDNA)
DNA 1: GCGTCCTTGACGACG
DNA 2: CGTCGTCAAGGACGC
modifications: 6-4 photoproduct at T7-T8 of strand 1
  binding result: binds
